Positions count from the first letter of the chain named.
Assays:
[1] = test system: T1, RRAPGKLT-Asp-LASY-Dap-WLFWTGIA-CONH2
T1 sequence: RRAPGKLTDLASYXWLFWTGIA

KLtCLASYCWLF = test system: T2, KLtCLASYCWLF
T2 sequence: KLTCLASYCWLF

[2] = test system: T3, PRIRTVSPGSRSASGKLTCLASYCWLFWTGIA
T3 sequence: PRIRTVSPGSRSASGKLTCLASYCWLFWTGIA

[3] = test system: T4, RRAPGKLTCLASYCWLF EPGIA QPYAKSPTRN
T4 sequence: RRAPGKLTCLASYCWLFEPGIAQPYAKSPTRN

KLT-Glu-LASY-Dap-WLF = test system: T5, KLT-Glu-LASY-Dap-WLF
T5 sequence: KLTELASYXWLF

RSTVSQMRCLASYCWLFPALVS = test system: T6, RSTVSQMRCLASYCWLFPALVS
T6 sequence: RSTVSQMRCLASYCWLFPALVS

[4] = test system: T7, SRIRTVGPGSRSASGKSTCLASYCWLFWTGIA
T7 sequence: T3 sequence with P1S, S7G, L17S

rRAAGKLTCLASACWLFATGIA = test system: T8, rRAAGKLTCLASACWLFATGIA
T8 sequence: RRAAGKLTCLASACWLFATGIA

[5] = test system: T9, rRAPGKLTCLASYCWLFWTGIA-PEG4-C(N-PEG5k maleimide)
T9 sequence: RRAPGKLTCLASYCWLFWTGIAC

[6] = test system: T10, PRIRTVSPGSRSASGKSTCLASYCWLFWTGIA
T10 sequence: T3 sequence with L17S

[7] = test system: T11, RRAPGKLCALASYACLFWTGIA-COOH
T11 sequence: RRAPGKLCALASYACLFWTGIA

KLTCLASYCWIF = test system: T12, KLTCLASYCWIF
T12 sequence: KLTCLASYCWLF

[8] = test system: T13, PRIRTVGSGSRSASGKLTCLASYCWLFWTGIA
T13 sequence: T3 sequence with S7G, P8S

compound 10 = test system: T14, compound 10
T14 sequence: KLTCLASYCWLFWTGIA

KLTCL-Abu-SYCWLF = test system: T15, KLTCL-Abu-SYCWLF
T15 sequence: KLTCLXSYCWLF

[9] = test system: T16, SKQGRPISPDRRAAGKLTCLASYCWLFWTGIA-PEG2-K(PEG2-Biotin)
T16 sequence: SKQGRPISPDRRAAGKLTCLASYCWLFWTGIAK

[10] = test system: T17, RRAPGKLTCLASYACLFWTGIA-CONH2
T17 sequence: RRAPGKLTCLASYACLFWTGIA

compound 2 = test system: T18, compound 2
T18 sequence: KLTCLASYCWLF
For Vmax (mOD/min min), with phospholipids in this document: test concentration or dose not given here.
For Vmax (mOD/min min), without phospholipids in this document: test concentration or dose not given here.

human Factor IXa
Vmax, FXa generation assay [1]: > 2
Vmax, FXa generation assay (KLtCLASYCWLF): > 2
Vmax, FXa generation assay [2]: > 3
Vmax, FXa generation assay [3]: > 2
Vmax, FXa generation assay; (++) means 1-2 (KLT-Glu-LASY-Dap-WLF): (++)
Vmax, FXa generation assay; (++) means 1-2 (RSTVSQMRCLASYCWLFPALVS): (++)
Vmax, FXa generation assay [4]: > 3
Vmax, FXa generation assay; (++) means 1-2 (rRAAGKLTCLASACWLFATGIA): (++)
Vmax, FXa generation assay [5]: > 2
Vmax, FXa generation assay [6]: > 3
Vmax, FXa generation assay [7]: > 0.3
Vmax, FXa generation assay (KLTCLASYCWIF): > 3
Vmax, FXa generation assay [8]: > 3
Vmax, FXa generation assay with hFIXa; (++) means 1-2 (compound 10): (++)
Vmax, FXa generation assay (KLTCL-Abu-SYCWLF): > 2
Vmax, FXa generation assay; (++) means 1-2 [9]: (++)
Vmax, FXa generation assay [10]: > 3
Vmax (mOD/min min), with phospholipids (compound 2): 4.22 mOD/min min
Vmax (mOD/min min), without phospholipids (compound 2): 3.05 mOD/min min
Vmax, FXa generation assay (compound 2): > 3
Vmax, FXa generation assay with hFIXa (compound 2): > 3

From patent US20140303084
